Assays:
[1] = target: transferrin receptor on 293F and HT29 cells (UniProt P02786); test: FACS, non-transfected 293F cells
[2] = target: transferrin receptor on 293F and HT29 cells (UniProt P02786); test: FACS, Ovr115-transfected 293F cells
[3] = target: transferrin receptor on 293F and HT29 cells (UniProt P02786); test: cell-based or functional assay
[4] = target: Full length HA-tagged Ovr115 (Met1-Leu435) expressed on transfected LMTK or 293F cells (human) (UniProt Q9NRS4); test: FACS, Ovr115-HA LMTK cells
[5] = target: Full length HA-tagged Ovr115 (Met1-Leu435) expressed on transfected LMTK or 293F cells (human) (UniProt Q9NRS4); test: FACS on Ovr115 transfected mouse LMTK cells, PE conjugate alone without MAb [panel A]
[6] = target: Full length HA-tagged Ovr115 (Met1-Leu435) expressed on transfected LMTK or 293F cells (human) (UniProt Q9NRS4); test: FACS, Ovr115-transfected 293F cells

UniProt P02786, sequence (P02786 whole entry): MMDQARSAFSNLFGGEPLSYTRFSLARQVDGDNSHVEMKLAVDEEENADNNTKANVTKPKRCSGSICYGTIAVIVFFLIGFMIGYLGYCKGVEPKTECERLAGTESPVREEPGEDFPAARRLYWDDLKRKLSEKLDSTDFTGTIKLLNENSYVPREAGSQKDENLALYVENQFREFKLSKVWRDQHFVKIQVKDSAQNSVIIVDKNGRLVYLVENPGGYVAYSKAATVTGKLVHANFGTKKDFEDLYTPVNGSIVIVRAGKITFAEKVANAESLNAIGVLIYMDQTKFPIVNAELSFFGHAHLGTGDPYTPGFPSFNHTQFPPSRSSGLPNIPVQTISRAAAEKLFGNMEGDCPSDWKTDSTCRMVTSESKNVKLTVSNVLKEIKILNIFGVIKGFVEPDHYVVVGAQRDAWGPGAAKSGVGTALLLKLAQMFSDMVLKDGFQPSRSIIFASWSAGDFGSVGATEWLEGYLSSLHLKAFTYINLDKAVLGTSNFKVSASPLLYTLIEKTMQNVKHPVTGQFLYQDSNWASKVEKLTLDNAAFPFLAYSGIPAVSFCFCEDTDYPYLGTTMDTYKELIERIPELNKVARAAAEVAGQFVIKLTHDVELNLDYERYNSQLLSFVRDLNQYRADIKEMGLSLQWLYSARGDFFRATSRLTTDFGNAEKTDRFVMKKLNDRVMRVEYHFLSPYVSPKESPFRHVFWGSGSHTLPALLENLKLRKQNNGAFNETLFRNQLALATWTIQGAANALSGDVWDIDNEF

A % cells positive [1] of 99.8%, an MFI [1] of 54.3 and a % cells positive [2] of 99.4% were found for 5E9C11 (antibody) in this work. For the same substance, the MFI [2] was 71.1, the Percent Growth Inhibition Compared to Wells with Medium Alone; HT29; MAb (0.08 µg/mL) + MAb Zap saporin conjugate [3] was 18% and the Percent Growth Inhibition Compared to Wells with Medium Alone; HT29; MAb (0.4 µg/mL) + MAb Zap saporin conjugate [3] was 58%. It also gave a Percent Growth Inhibition Compared to Wells with Medium Alone; HT29; MAb (2 µg/mL) + MAb Zap saporin conjugate [3] of 35%.

A % cells positive [4] of 61% and an MFI [4] of 19 were found for Anti-HA MAb (Covance) (antibody) in this work.

A Mean of Fluorescence [5] of 0.57, a % cells positive [6] of 1.7% and an MFI [6] of 0.567 were found for “phycoerythrin (PE) conjugated donkey anti-mouse IgG Fc antibody” in this work. It also gave a % cells positive [4] of 0.6% and an MFI [4] of 2.15.

From patent US20070104647A1
